Assay results as given in the supplement of paper PMC5998384.

Experiments:
HeLa Kyoto [1] = assay: solubility in G1/S (NP-40 vs SDS abundance) (log2 ratio); higher = more soluble; conditions: cell cycle stage: G1/S
HeLa Kyoto [2] = assay: melting temperature (median over replicates), in situ; higher = more thermally stable
HeLa Kyoto [3] = assay: solubility change mitosis vs G1/S (difference of NP-40 vs SDS log2 ratios) (log2 ratio difference); higher = more soluble in mitosis
HeLa Kyoto [4] = assay: thermal stability score vs G1/S (z-score of summed log2 fold changes over temperatures); higher = more thermally stable than in G1/S
[5] = cell cycle stage: early G1 (4.5 h after nocodazole release)
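Throughout, for melting temperature (median over replicates), in situ: HeLa Kyoto cells synchronized by double thymidine or nocodazole block, proteins quantified by TMT10plex mass spectrometry, three independent biological replicates.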
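Throughout, for solubility change mitosis vs G1/S (difference of NP-40 vs SDS log2 ratios): synchronized HeLa Kyoto cells (double thymidine block for G1/S, nocodazole release for mitosis), protein amounts in NP-40 versus SDS lysates quantified by mass spectrometry, three biological replicates.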
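Throughout, for solubility in G1/S (NP-40 vs SDS abundance): HeLa Kyoto cells arrested at G1/S by double thymidine block, proteins quantified by TMT10plex mass spectrometry in mild NP-40 versus SDS extracts, three biological replicates.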
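Throughout, for thermal stability score vs G1/S (z-score of summed log2 fold changes over temperatures): synchronized HeLa Kyoto cells, proteins quantified by TMT10plex mass spectrometry, three biological replicates, mitosis taken 0.5 h after nocodazole release, G1/S directly after double thymidine block.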

Row | Substance | solubility in G1/S (log2) (HeLa Kyoto [1]) | melting temperature (HeLa Kyoto [2]; cell cycle stage: G1/S) [°C] | melting temperature (HeLa Kyoto [2]; cell cycle stage: mitosis) [°C] | solubility change mitosis (log2) (HeLa Kyoto [3]) | thermal stability score (HeLa Kyoto [4]; [5]) | thermal stability score (HeLa Kyoto [4]; cell cycle stage: mitosis)
1 | MPMYQVKPYHGGGAPLRVELPTCMYRLPNVHGRSYGPAPGAGHVQEESNLSLQALESRQDDILKRLYELKAAVDGLSKMIQTPDADLDVTNIIQADEPTTLTTNALDLNSVLGKDYGALKDIVINANPASPPLSLLVLHRLLCEHFRVLSTVHTHSSVKSVPENLLKCFGEQNKKQPRQDYQLGFTLIWKNVPKTQMKFSIQTMCPIEGEGNIARFLFSLFGQKHNAVNATLIDSWVDIAIFQLKEGSSKEKAAVFRSMNSALGKSPWLAGNELTVADVVLWSVLQQIGGCSVTVPANVQRWMRSCENLAPFNTALKLLK [AIMP2] | 0.321 | 48.9 | 49.6 | 0.104 | 0.153 | 1.22
2 | MDLYSTPAAALDRFVARRLQPRKEFVEKARRALGALAAALRERGGRLGAAAPRVLKTVKGGSSGRGTALKGGCDSELVIFLDCFKSYVDQRARRAEILSEMRASLESWWQNPVPGLRLTFPEQSVPGALQFRLTSVDLEDWMDVSLVPAFNVLGQAGSGVKPKPQVYSTLLNSGCQGGEHAACFTELRRNFVNIRPAKLKNLILLVKHWYHQVCLQGLWKETLPPVYALELLTIFAWEQGCKKDAFSLAEGLRTVLGLIQQHQHLCVFWTVNYGFEDPAVGQFLQRQLKRPRPVILDPADPTWDLGNGAAWHWDLLAQEAASCYDHPCFLRGMGDPVQSWKGPGLPRAGCSGLGHPIQLDPNQKTPENSKSLNAVYPRAGSKPPSCPAPGPTGAASIVPSVPGMALDLSQIPTKELDRFIQDHLKPSPQFQEQVKKAIDIILRCLHENCVHKASRVSKGGSFGRGTDLRDGCDVELIIFLNCFTDYKDQGPRRAEILDEMRAQLESWWQDQVPSLSLQFPEQNVPEALQFQLVSTALKSWTDVSLLPAFDAVGQLSSGTKPNPQVYSRLLTSGCQEGEHKACFAELRRNFMNIRPVKLKNLILLVKHWYRQVAAQNKGKGPAPASLPPAYALELLTIFAWEQGCRQDCFNMAQGFRTVLGLVQQHQQLCVYWTVNYSTEDPAMRMHLLGQLRKPRPLVLDPADPTWNVGHGSWELLAQEAAALGMQACFLSRDGTSVQPWDVMPALLYQTPAGDLDKFISEFLQPNRQFLAQVNKAVDTICSFLKENCFRNSPIKVIKVVKGGSSAKGTALRGRSDADLVVFLSCFSQFTEQGNKRAEIISEIRAQLEACQQERQFEVKFEVSKWENPRVLSFSLTSQTMLDQSVDFDVLPAFDALGQLVSGSRPSSQVYVDLIHSYSNAGEYSTCFTELQRDFIISRPTKLKSLIRLVKHWYQQCTKISKGRGSLPPQHGLELLTVYAWEQGGKDSQFNMAEGFRTVLELVTQYRQLCIYWTINYNAKDKTVGDFLKQQLQKPRPIILDPADPTGNLGHNARWDLLAKEAAACTSALCCMGRNGIPIQPWPVKAAV [OAS3] | -0.177 | 50.3 | 49.8 | -0.109 | 1.51 | 1.6
3 | MLSESSSFLKGVMLGSIFCALITMLGHIRIGHGNRMHHHEHHHLQAPNKEDILKISEDERMELSKSFRVYCIILVKPKDVSLWAAVKETWTKHCDKAEFFSSENVKVFESINMDTNDMWLMMRKAYKYAFDKYRDQYNWFFLARPTTFAIIENLKYFLLKKDPSQPFYLGHTIKSGDLEYVGMEGGIVLSVESMKRLNSLLNIPEKCPEQGGMIWKISEDKQLAVCLKYAGVFAENAEDADGKDVFNTKSVGLSIKEAMTYHPNQVVEGCCSDMAVTFNGLTPNQMHVMMYGVYRLRAFGHIFNDALVFLPPNGSDND [C1GALT1C1] | 0.0342 | 53.9 | 53.4 | -0.0947 | -0.0972 | -0.609
4 | MAAQVTLEDALSNVDLLEELPLPDQQPCIEPPPSSLLYQPNFNTNFEDRNAFVTGIARYIEQATVHSSMNEMLEEGQEYAVMLYTWRSCSRAIPQVKCNEQPNRVEIYEKTVEVLEPEVTKLMNFMYFQRNAIERFCGEVRRLCHAERRKDFVSEAYLITLGKFINMFAVLDELKNMKCSVKNDHSAYKRAAQFLRKMADPQSIQESQNLSMFLANHNKITQSLQQQLEVISGYEELLADIVNLCVDYYENRMYLTPSEKHMLLKVMGFGLYLMDGSVSNIYKLDAKKRINLSKIDKYFKQLQVVPLFGDMQIELARYIKTSAHYEENKSRWTCTSSGSSPQYNICEQMIQIREDHMRFISELARYSNSEVVTGSGRQEAQKTDAEYRKLFDLALQGLQLLSQWSAHVMEVYSWKLVHPTDKYSNKDCPDSAEEYERATRYNYTSEEKFALVEVIAMIKGLQVLMGRMESVFNHAIRHTVYAALQDFSQVTLREPLRQAIKKKKNVIQSVLQAIRKTVCDWETGHEPFNDPALRGEKDPKSGFDIKVPRRAVGPSSTQLYMVRTMLESLIADKSGSKKTLRSSLEGPTILDIEKFHRESFFYTHLINFSETLQQCCDLSQLWFREFFLELTMGRRIQFPIEMSMPWILTDHILETKEASMMEYVLYSLDLYNDSAHYALTRFNKQFLYDEIEAEVNLCFDQFVYKLADQIFAYYKVMAGSLLLDKRLRSECKNQGATIHLPPSNRYETLLKQRHVQLLGRSIDLNRLITQRVSAAMYKSLELAIGRFESEDLTSIVELDGLLEINRMTHKLLSRYLTLDGFDAMFREANHNVSAPYGRITLHVFWELNYDFLPNYCYNGSTNRFVRTVLPFSQEFQRDKQPNAQPQYLHGSKALNLAYSSIYGSYRNFVGPPHFQVICRLLGYQGIAVVMEELLKVVKSLLQGTILQYVKTLMEVMPKICRLPRHEYGSPGILEFFHHQLKDIVEYAELKTVCFQNLREVGNAILFCLLIEQSLSLEEVCDLLHAAPFQNILPRVHVKEGERLDAKMKRLESKYAPLHLVPLIERLGTPQQIAIAREGDLLTKERLCCGLSMFEVILTRIRSFLDDPIWRGPLPSNGVMHVDECVEFHRLWSAMQFVYCIPVGTHEFTVEQCFGDGLHWAGCMIIVLLGQQRRFAVLDFCYHLLKVQKHDGKDEIIKNVPLKKMVERIRKFQILNDEIITILDKYLKSGDGEGTPVEHVRCFQPPIHQSLASS [CYFIP1] | -0.33 | 51.6 | 51.1 | -0.136 | -0.593 | -0.58
5 | MASEKPLAAVTCTAPVNIAVIKYWGKRDEELVLPINSSLSVTLHQDQLKTTTTAVISKDFTEDRIWLNGREEDVGQPRLQACLREIRCLARKRRNSRDGDPLPSSLSCKVHVASVNNFPTAAGLASSAAGYACLAYTLARVYGVESDLSEVARRGSGSACRSLYGGFVEWQMGEQADGKDSIARQVAPESHWPELRVLILVVSAEKKLTGSTVGMRASVETSPLLRFRAESVVPARMAEMARCIRERDFPSFAQLTMKDSNQFHATCLDTFPPISYLNAISWRIIHLVHRFNAHHGDTKVAYTFDAGPNAVIFTLDDTVAEFVAAVWHGFPPGSNGDTFLKGLQVRPAPLSAELQAALAMEPTPGGVKYIIVTQVGPGPQILDDPCAHLLGPDGLPKPAA [MVD] | 0.321 | 52.6 | 52.6 | -0.138 | -0.632 | -0.962
6 | MSEVKSRKKSGPKGAPAAEPGKRSEGGKTPVARSSGGGGWADPRTCLSLLSLGTCLGLAWFVFQQSEKFAKVENQYQLLKLETNEFQQLQSKISLISEKWQKSEAIMEQLKSFQIIAHLKRLQEEINEVKTWSNRITEKQDILNNSLTTLSQDITKVDQSTTSMAKDVGLKITSVKTDIRRISGLVTDVISLTDSVQELENKIEKVEKNTVKNIGDLLSSSIDRTATLRKTASENSQRINSVKKTLTELKSDFDKHTDRFLSLEGDRAKVLKTVTFANDLKPKVYNLKKDFSRLEPLVNDLTLRIGRLVTDLLQREKEIAFLSEKISNLTIVQAEIKDIKDEIAHISDMN [IKBIP] | 0.751 | 54.1 | 55.2 | 0.165 | 2.64 | 4.37
7 | MALNKNHSEGGGVIVNNTESILMSYDHVELTFNDMKNVPEAFKGTKKGTVYLTPYRVIFLSKGKDAMQSFMMPFYLMKDCEIKQPVFGANYIKGTVKAEAGGGWEGSASYKLTFTAGGAIEFGQRMLQVASQASRGEVPSGAYGYSYMPSGAYVYPPPVANGMYPCPPGYPYPPPPPEFYPGPPMMDGAMGYVQPPPPPYPGPMEPPVSGPDVPSTPAAEAKAAEAAASAYYNPGNPHNVYMPTSQPPPPPYYPPEDKKTQ [WBP2] | 0.283 | 54.1 | 54.5 | -0.0665 | 0.182 | -1.41
8 | ZNF629 | -0.355 | 53.4 | 52.9 | -0.0563 | 0.477 | -1.32
9 | GLUD1 | 0.197 | 57.5 | 57.2 | -0.0663 | 2.33 | -0.967
10 | MSLQSAQYLRQAEVLKADMTDSKLGPAEVWTSRQALQDLYQKMLVTDLEYALDKKVEQDLWNHAFKNQITTLQGQAKNRANPNRSEVQANLSLFLEAASGFYTQLLQELCTVFNVDLPCRVKSSQLGIISNKQTHTSAIVKPQSSSCSYICQHCLVHLGDIARYRNQTSQAESYYRHAAQLVPSNGQPYNQLAILASSKGDHLTTIFYYCRSIAVKFPFPAASTNLQKALSKALESRDEVKTKWGVSDFIKAFIKFHGHVYLSKSLEKLSPLREKLEEQFKRLLFQKAFNSQQLVHVTVINLFQLHHLRDFSNETEQHTYSQDEQLCWTQLLALFMSFLGILCKCPLQNESQEESYNAYPLPAVKVSMDWLRLRPRVFQEAVVDERQYIWPWLISLLNSFHPHEEDLSSISATPLPEEFELQGFLALRPSFRNLDFSKGHQGITGDKEGQQRRIRQQRLISIGKWIADNQPRLIQCENEVGKLLFITEIPELILEDPSEAKENLILQETSVIESLAADGSPGLKSVLSTSRNLSNNCDTGEKPVVTFKENIKTREVNRDQGRSFPPKEVRRDYSKGITVTKNDGKKDNNKRKTETKKCTLEKLQETGKQNVAVQVKSQTELRKTPVSEARKTPVTQTPTQASNSQFIPIHHPGAFPPLPSRPGFPPPTYVIPPPVAFSMGSGYTFPAGVSVPGTFLQPTAHSPAGNQVQAGKQSHIPYSQQRPSGPGPMNQGPQQSQPPSQQPLTSLPAQPTAQSTSQLQVQALTQQQQSPTKAVPALGKSPPHHSGFQQYQQADASKQLWNPPQVQGPLGKIMPVKQPYYLQTQDPIKLFEPSLQPPVMQQQPLEKKMKPFPMEPYNHNPSEVKVPEFYWDSSYSMADNRSVMAQQANIDRRGKRSPGVFRPEQDPVPRMPFEKSLLEKPSELMSHSSSFLSLTGFSLNQERYPNNSMFNEVYGKNLTSSSKAELSPSMAPQETSLYSLFEGTPWSPSLPASSDHSTPASQSPHSSNPSSLPSSPPTHNHNSVPFSNFGPIGTPDNRDRRTADRWKTDKPAMGGFGIDYLSATSSSESSWHQASTPSGTWTGHGPSMEDSSAVLMESLKSIWSSSMMHPGPSALEQLLMQQKQKQQRGQGTMNPPH [SMG7] | 0.0703 | 50.4 | 49.3 | -0.127 | 0.868 | 1.4
11 | MAASAGAGAVIAAPDSRRWLWSVLAAALGLLTAGVSALEVYTPKEIFVANGTQGKLTCKFKSTSTTGGLTSVSWSFQPEGADTTVSFFHYSQGQVYLGNYPPFKDRISWAGDLDKKDASINIENMQFIHNGTYICDVKNPPDIVVQPGHIRLYVVEKENLPVFPVWVVVGIVTAVVLGLTLLISMILAVLYRRKNSKRDYTGCSTSESLSPVKQAPRKSPSDTEGLVKSLPSGSHQGPVIYAQLDHSGGHHSDKINKSESVVYADIRKN [MPZL1] | 0.534 | 57.8 | 58.1 | -0.289 | -1.73 | -3.55
12 | MEADASVDMFSKVLEHQLLQTTKLVEEHLDSEIQKLDQMDEDELERLKEKRLQALRKAQQQKQEWLSKGHGEYREIPSERDFFQEVKESENVVCHFYRDSTFRCKILDRHLAILSKKHLETKFLKLNVEKAPFLCERLHIKVIPTLALLKDGKTQDYVVGFTDLGNTDDFTTETLEWRLGSSDILNYSGNLMEPPFQNQKKFGTNFTKLEKKTIRGKKYDSDSDDD [TXNDC9] | 0.273 | 52.4 | 52.7 | 0.0132 | 1 | 0.636
